Assay results from publication PMC9771472, “Tenuous transcriptional threshold of human sex determination. II. SRY exploits water-mediated clamp at the edge of ambiguity”.

Experiments:
SRY HMG box Y72W [1] = biological target: T1, SRY HMG box Y72W (human, UniProt Q05066 57-141, Y127W); experiment: CD; 25 uM each; A-form features in bound DNA; FRET: 10 mM potassium phosphate, 10 mM Tris-HCl, 140 mM KCl, pH 8.0, 15 and 37 C, 25 nM DNA (Kd); sf-FRET 1 uM complex + 20 uM unlabelled DNA at 10, 15, 25, 37; conditions: protein: recombinant; blunt
T1 sequence (Q05066 57-141 Y127W): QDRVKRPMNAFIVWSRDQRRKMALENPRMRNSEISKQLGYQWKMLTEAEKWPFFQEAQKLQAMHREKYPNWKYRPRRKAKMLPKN

SRY HMG box Y72A = SRY HMG box Y72A (human, UniProt Q05066 57-141, Y127A); experiment: CD; 25 uM each; least shifted toward A-DNA; FRET: 10 mM potassium phosphate, 10 mM Tris-HCl, 140 mM KCl, pH 8.0, 15 and 37 C, 25 nM DNA (Kd); sf-FRET 1 uM complex + 20 uM unlabelled DNA at 10, 15, 25, 37; conditions: protein: recombinant; blunt
SRY HMG box Y72A, sequence (Q05066 57-141 Y127A): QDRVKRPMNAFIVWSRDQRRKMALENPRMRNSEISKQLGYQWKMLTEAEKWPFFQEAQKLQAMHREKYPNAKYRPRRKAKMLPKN

SRY HMG box Y72F [2] = biological target: T2, SRY HMG box Y72F (human, UniProt Q05066 57-141, Y127F); experiment: NMR (1H imino, NOESY, 15N HSQC); CD; 1:1, 25 C, 10 mM K-phosphate pH 7.4, 50 mM KCl (NMR); FRET: 10 mM potassium phosphate, 10 mM Tris-HCl, 140 mM KCl, pH 8.0, 15 and 37 C, 25 nM DNA (Kd); sf-FRET 1 uM complex + 20 uM unlabelled DNA at 10, 15, 25, 37; conditions: protein: recombinant; blunt
T2 sequence (Q05066 57-141 Y127F): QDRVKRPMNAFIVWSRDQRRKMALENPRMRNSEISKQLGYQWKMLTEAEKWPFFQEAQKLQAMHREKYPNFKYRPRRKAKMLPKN

SRY HMG box WT [3] = biological target: T3, SRY HMG box WT (human, UniProt Q05066 57-141); experiment: as above; conditions: protein: recombinant; blunt
T3 sequence (Q05066 57-141): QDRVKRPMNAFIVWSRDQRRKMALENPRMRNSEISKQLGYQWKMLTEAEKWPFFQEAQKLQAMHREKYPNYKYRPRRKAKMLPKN

SRY HMG box Y72H = SRY HMG box Y72H (human, UniProt Q05066 57-141, Y127H); experiment: stopped-flow FRET; near-native affinity (Kd from companion paper); koff 14(+/-0.38)-fold faster than WT at 10 C; FRET: 10 mM potassium phosphate, 10 mM Tris-HCl, 140 mM KCl, pH 8.0, 15 and 37 C, 25 nM DNA (Kd); sf-FRET 1 uM complex + 20 uM unlabelled DNA at 10, 15, 25, 37; conditions: protein: recombinant; label: 5'-fluorescein (upper strand); 5'-TAMRA (lower strand), hexanyl linkers; blunt
SRY HMG box Y72H, sequence (Q05066 57-141 Y127H): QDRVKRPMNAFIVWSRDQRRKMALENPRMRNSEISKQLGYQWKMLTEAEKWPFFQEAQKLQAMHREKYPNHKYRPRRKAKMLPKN

SRY HMG box Y72C = SRY HMG box Y72C (human, UniProt Q05066 57-141, Y127C); experiment: stopped-flow FRET; near-native affinity (Kd from companion paper); koff 26(+/-1.3)-fold faster than WT at 10 C; FRET: 10 mM potassium phosphate, 10 mM Tris-HCl, 140 mM KCl, pH 8.0, 15 and 37 C, 25 nM DNA (Kd); sf-FRET 1 uM complex + 20 uM unlabelled DNA at 10, 15, 25, 37; conditions: protein: recombinant; label: 5'-fluorescein (upper strand); 5'-TAMRA (lower strand), hexanyl linkers; blunt
SRY HMG box Y72C, sequence (Q05066 57-141 Y127C): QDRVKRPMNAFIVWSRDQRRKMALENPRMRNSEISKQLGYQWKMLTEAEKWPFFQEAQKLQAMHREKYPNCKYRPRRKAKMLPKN

SRY HMG box Y72F [4] = biological target: T2, SRY HMG box Y72F; experiment: steady-state FRET; stopped-flow FRET; native-like affinity; koff about 4-fold faster than WT at 37 C, compensated by kon; FRET: 10 mM potassium phosphate, 10 mM Tris-HCl, 140 mM KCl, pH 8.0, 15 and 37 C, 25 nM DNA (Kd); sf-FRET 1 uM complex + 20 uM unlabelled DNA at 10, 15, 25, 37; conditions: protein: recombinant; label: 5'-fluorescein (upper strand); 5'-TAMRA (lower strand), hexanyl linkers; blunt
SRY HMG box WT [5] = biological target: T3, SRY HMG box WT; experiment: steady-state FRET; reference; Kd values in Table S7 not in material; FRET: 10 mM potassium phosphate, 10 mM Tris-HCl, 140 mM KCl, pH 8.0, 15 and 37 C, 25 nM DNA (Kd); sf-FRET 1 uM complex + 20 uM unlabelled DNA at 10, 15, 25, 37; conditions: protein: recombinant; label: 5'-fluorescein (upper strand); 5'-TAMRA (lower strand), hexanyl linkers; blunt
SRY HMG box Y72W [6] = biological target: T1, SRY HMG box Y72W; experiment: steady-state FRET; stopped-flow FRET; high affinity retained; slight koff increase; FRET: 10 mM potassium phosphate, 10 mM Tris-HCl, 140 mM KCl, pH 8.0, 15 and 37 C, 25 nM DNA (Kd); sf-FRET 1 uM complex + 20 uM unlabelled DNA at 10, 15, 25, 37; conditions: protein: recombinant; label: 5'-fluorescein (upper strand); 5'-TAMRA (lower strand), hexanyl linkers; blunt

Measured: binding result

B1: 15-bp SRY site, unlabelled (dsDNA)
DNA 1: TCGGTGATTGTTCAG
DNA 2: CTGAACAATCACCGA
binds: SRY HMG box Y72W [1] | SRY HMG box Y72A | SRY HMG box Y72F [2] | SRY HMG box WT [3]

B2: 15-bp SRY site, FRET-labelled (dsDNA)
DNA 1: TCGGTGATTGTTCAG
DNA 2: CTGAACAATCACCGA
binds: SRY HMG box Y72H | SRY HMG box Y72C | SRY HMG box Y72F [4] | SRY HMG box WT [5] | SRY HMG box Y72W [6]
